# Measurements from the supplement of paper PMC5998384.
# Legend:
# HeLa Kyoto [1] = assay: solubility in G1/S (NP-40 vs SDS abundance) (log2 ratio); higher = more soluble; conditions: cell cycle stage: G1/S
# HeLa Kyoto [2] = assay: melting temperature (median over replicates), in situ; higher = more thermally stable
# HeLa Kyoto [3] = assay: solubility change mitosis vs G1/S (difference of NP-40 vs SDS log2 ratios) (log2 ratio difference); higher = more soluble in mitosis
# HeLa Kyoto [4] = assay: thermal stability score vs G1/S (z-score of summed log2 fold changes over temperatures); higher = more thermally stable than in G1/S
# [5] = cell cycle stage: early G1 (4.5 h after nocodazole release)
# 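Throughout, for melting temperature (median over replicates), in situ: HeLa Kyoto cells synchronized by double thymidine or nocodazole block, proteins quantified by TMT10plex mass spectrometry, three independent biological replicates.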
# 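Throughout, for solubility change mitosis vs G1/S (difference of NP-40 vs SDS log2 ratios): synchronized HeLa Kyoto cells (double thymidine block for G1/S, nocodazole release for mitosis), protein amounts in NP-40 versus SDS lysates quantified by mass spectrometry, three biological replicates.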
# 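Throughout, for solubility in G1/S (NP-40 vs SDS abundance): HeLa Kyoto cells arrested at G1/S by double thymidine block, proteins quantified by TMT10plex mass spectrometry in mild NP-40 versus SDS extracts, three biological replicates.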
# 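Throughout, for thermal stability score vs G1/S (z-score of summed log2 fold changes over temperatures): synchronized HeLa Kyoto cells, proteins quantified by TMT10plex mass spectrometry, three biological replicates, mitosis taken 0.5 h after nocodazole release, G1/S directly after double thymidine block.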
Substance,solubility in G1/S (log2) (HeLa Kyoto [1]),melting temperature (HeLa Kyoto [2]; cell cycle stage: G1/S) [°C],melting temperature (HeLa Kyoto [2]; cell cycle stage: mitosis) [°C],solubility change mitosis (log2) (HeLa Kyoto [3]),thermal stability score (HeLa Kyoto [4]; [5]),thermal stability score (HeLa Kyoto [4]; cell cycle stage: mitosis)
MLPYTVNFKVSARTLTGALNAHNKAAVDWGWQGLIAYGCHSLVVVIDSITAQTLQVLEKHKADVVKVKWARENYHHNIGSPYCLRLASADVNGKIIVWDVAAGVAQCEIQEHAKPIQDVQWLWNQDASRDLLLAIHPPNYIVLWNADTGTKLWKKSYADNILSFSFDPFDPSHLTLLTSEGIVFISDFSPSKPPSGPGKKVYISSPHSSPAHNKLATATGAKKALNKVKILITQEKPSAEFITLNDCLQLAYLPSKRNHMLLLYPREILILDLEVNQTVGVIAIERTGVPFLQVIPCFQRDGLFCLHENGCITLRVRRSYNNIFTTSNEEPDPDPVQELTYDLRSQCDAIRVTKTVRPFSMVCCPVNENAAALVVSDGRVMIWELKSAVCNRNSRNSSSGVSPLYSPVSFCGIPVGVLQNKLPDLSLDNMIGQSAIAGEEHPRGSILREVHLKFLLTGLLSGLPAPQFAIRMCPPLTTKNIKMYQPLLAVGTSNGSVLVYHLTSGLLHKELSIHSCEVKGIEWTSLTSFLSFATSTPNNMGLVRNELQLVDLPTGRSIAFRGERGNDESAIEMIKVSHLKQYLAVVFRDKPLELWDVRTCTLLREMSKNFPTITALEWSPSHNLKSLRKKQLATREAMARQTVVSDTELSIVESSVISLLQEAESKSELSQNISAREHFVFTDIDGQVYHLTVEGNSVKDSARIPPDGSMGSITCIAWKGDTLVLGDMDGNLNFWDLKGRVSRGIPTHRSWVRKIRFAPGKGNQKLIAMYNDGAEVWDTKEVQMVSSLRSGRNVTFRILDVDWCTSDKVILASDDGCIRVLEMSMKSACFRMDEQELTEPVWCPYLLVPRASLALKAFLLHQPWNGQYSLDISHVDYPENEEIKNLLQEQLNSLSNDIKKLLLDPEFTLLQRCLLVSRLYGDESELHFWTVAAHYLHSLSQEKSASTTAPKEAAPRDKLSNPLDICYDVLCENAYFQKFQLERVNLQEVKRSTYDHTRKCTDQLLLLGQTDRAVQLLLETSADNQHYYCDSLKACLVTTVTSSGPSQSTIKLVATNMIANGKLAEGVQLLCLIDKAADACRYLQTYGEWNRAAWLAKVRLNPEECADVLRRWVDHLCSPQVNQKSKALLVLLSLGCFFSVAETLHSMRYFDRAALFVEACLKYGAFEVTEDTEKLITAIYADYARSLKNLGFKQGAVLFASKAGAAGKDLLNELESPKEEPIEE [WDR11],-0.123,52.8,53.4,-0.106,1.39,0.377
GOLGA4,0.348,48.5,49.2,-0.133,0.946,2.53
MAASGEPQRQWQEEVAAVVVVGSCMTDLVSLTSRLPKTGETIHGHKFFIGFGGKGANQCVQAARLGAMTSMVCKVGKDSFGNDYIENLKQNDISTEFTYQTKDAATGTASIIVNNEGQNIIVIVAGANLLLNTEDLRAAANVISRAKVMVCQLEITPATSLEALTMARRSGVKTLFNPAPAIADLDPQFYTLSDVFCCNESEAEILTGLTVGSAADAGEAALVLLKRGCQVVIITLGAEGCVVLSQTEPEPKHIPTEKVKAVDTTGAGDSFVGALAFYLAYYPNLSLEDMLNRSNFIAAVSVQAAGTQSSYPYKKDLPLTLF [RBKS],0.229,57.9,54.8,-0.0848,-2.59,-2.4
MPHFTVVPVDGPRRGDYDNLEGLSWVDYGERAELDDSDGHGNHRESSPFLSPLEASRGIDYYDRNLALFEEELDIRPKVSSLLGKLVSYTNLTQGAKEHEEAESGEGTRRRAAEAPSMGTLMGVYLPCLQNIFGVILFLRLTWMVGTAGVLQALLIVLICCCCTLLTAISMSAIATNGVVPAGGSYFMISRSLGPEFGGAVGLCFYLGTTFAAAMYILGAIEILLTYIAPPAAIFYPSGAHDTSNATLNNMRVYGTIFLTFMTLVVFVGVKYVNKFASLFLACVIISILSIYAGGIKSIFDPPVFPVCMLGNRTLSRDQFDICAKTAVVDNETVATQLWSFFCHSPNLTTDSCDPYFMLNNVTEIPGIPGAAAGVLQENLWSAYLEKGDIVEKHGLPSADAPSLKESLPLYVVADIATSFTVLVGIFFPSVTGIMAGSNRSGDLRDAQKSIPVGTILAIITTSLVYFSSVVLFGACIEGVVLRDKYGDGVSRNLVVGTLAWPSPWVIVIGSFFSTCGAGLQSLTGAPRLLQAIAKDNIIPFLRVFGHGKVNGEPTWALLLTALIAELGILIASLDMVAPILSMFFLMCYLFVNLACAVQTLLRTPNWRPRFKYYHWALSFLGMSLCLALMFVSSWYYALVAMLIAGMIYKYIEYQGAEKEWGDGIRGLSLSAARYALLRLEEGPPHTKNWRPQLLVLLKLDEDLHVKYPRLLTFASQLKAGKGLTIVGSVIQGSFLESYGEAQAAEQTIKNMMEIEKVKGFCQVVVASKVREGLAHLIQSCGLGGMRHNSVVLGWPYGWRQSEDPRAWKTFIDTVRCTTAAHLALLVPKNIAFYPSNHERYLEGHIDVWWIVHDGGMLMLLPFLLRQHKVWRKCRMRIFTVAQMDDNSIQMKKDLAVFLYHLRLEAEVEVVEMHNSDISAYTYERTLMMEQRSQMLRQMRLTKTEREREAQLVKDRHSALRLESLYSDEEDESAVGADKIQMTWTRDKYMTETWDPSHAPDNFRELVHIKPDQSNVRRMHTAVKLNEVIVTRSHDARLVLLNMPGPPRNSEGDENYMEFLEVLTEGLERVLLVRGGGREVITIYS [SLC12A4],0.0648,54.3,54.2,-0.148,0.505,0.0338
MPFLELDTNLPANRVPAGLEKRLCAAAASILGKPADRVNVTVRPGLAMALSGSTEPCAQLSISSIGVVGTAEDNRSHSAHFFEFLTKELALGQDRILIRFFPLESWQIGKIGTVMTFL [DDT],0.57,56.1,57.4,-0.0844,-2.25,-2.27
